# According to patent publication US20030229203A1:
# Columns and labels:
# CCR1 = biological target: T1, CCR1 (UniProt P32246); assay: cell-based or functional assay
# T1 sequence (looked up): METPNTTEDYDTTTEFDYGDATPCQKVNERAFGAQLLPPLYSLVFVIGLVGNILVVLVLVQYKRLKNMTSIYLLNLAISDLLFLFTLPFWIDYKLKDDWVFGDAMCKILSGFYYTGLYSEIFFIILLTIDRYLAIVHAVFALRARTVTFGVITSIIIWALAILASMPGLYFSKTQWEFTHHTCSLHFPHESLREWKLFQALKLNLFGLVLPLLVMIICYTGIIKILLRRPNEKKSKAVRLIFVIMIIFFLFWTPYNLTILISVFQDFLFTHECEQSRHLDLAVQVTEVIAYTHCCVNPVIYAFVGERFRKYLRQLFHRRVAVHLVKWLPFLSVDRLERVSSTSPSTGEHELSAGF
# CCR5 (human) = CCR5 (human) (UniProt P51681); assay: cell-based or functional assay
# Sequence of CCR5 (human) (P51681 whole entry): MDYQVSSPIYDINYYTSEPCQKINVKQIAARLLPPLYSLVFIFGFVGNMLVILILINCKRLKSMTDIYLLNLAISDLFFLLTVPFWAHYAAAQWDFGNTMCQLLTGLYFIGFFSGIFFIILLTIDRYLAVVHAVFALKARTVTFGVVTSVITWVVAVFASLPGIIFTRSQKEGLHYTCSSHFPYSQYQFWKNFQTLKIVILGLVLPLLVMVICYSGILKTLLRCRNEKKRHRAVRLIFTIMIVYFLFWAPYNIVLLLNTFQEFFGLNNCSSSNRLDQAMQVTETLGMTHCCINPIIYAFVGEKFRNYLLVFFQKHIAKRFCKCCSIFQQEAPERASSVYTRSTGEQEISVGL
# Sequence of RANTES(3-68) (P13501 26-91 limits assumed): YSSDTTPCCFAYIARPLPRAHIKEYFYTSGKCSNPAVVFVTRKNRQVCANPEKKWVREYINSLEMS
# Sequence of RANTES(1-68) (P13501 24-91): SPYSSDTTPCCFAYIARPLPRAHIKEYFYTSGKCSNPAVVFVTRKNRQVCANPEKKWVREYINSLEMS
"concentration at which the Ca2+ response saturated (Fura-2, HOS-CD4 cells expressing CCR1) (CCR1) [nM]","concentration sufficient to induce a maximal Ca2+ response (Fura-2, HEK-293 cells expressing CCR5) (CCR5 (human)) [nM]","amount required to produce a detectable Ca2+ response, relative to RANTES(1-68) (Fura-2, HOS-CD4 cells expressing CCR1) (times that for RANTES(1-68)) (CCR1)",Substance
50,10,,RANTES(1-68) (from UniProt P13501 24-91) (ligand)
> 200,10,100,RANTES(3-68) (from UniProt P13501 26-91) (ligand)
